Experimental data from PMC9784774.

Tests used:
MAb MSL-109 = assay: ELISA; details: read off a plot
[1] = target: recombinant gH/gL/gO trimer (human cytomegalovirus | human cytomegalovirus strain VR1814); assay: SPR; Biacore X100, CM5 chip, RT, 1:1 binding model; methods: antibody (4 μg/mL) captured by anti-human Fc IgG to about 100 RU, pentamer or trimer in five 2-fold dilutions injected at 30 μL/min, 90 s association, 600 s dissociation (the legend of Fig. 5 tells the reverse orientation)

Row | Substance | percent of parent (MAb MSL-109) [%] | Kd [1] [nM] | koff [1] [s⁻¹] | kon [1] [M⁻¹ s⁻¹]
1 | recombinant gH/gL/UL128/UL130/UL131A pentamer (wild type) gH:D446A | 46 | – | – | –
2 | recombinant gH/gL/UL128/UL130/UL131A pentamer (wild type) gH:P171A | 6 | – | – | –
3 | recombinant gH/gL/UL128/UL130/UL131A pentamer (wild type) gH:W168A | 3 | – | – | –
4 | MAb MSL-109 (antibody) | – | 20.7 | 0.00987 | 476000
